Assay results as given in IntAct's records for PubMed 15652484.

Molecular target: erp44_mouse Erp44 (UniProt Q9D1Q6)
Sequence (Q9D1Q6 whole entry): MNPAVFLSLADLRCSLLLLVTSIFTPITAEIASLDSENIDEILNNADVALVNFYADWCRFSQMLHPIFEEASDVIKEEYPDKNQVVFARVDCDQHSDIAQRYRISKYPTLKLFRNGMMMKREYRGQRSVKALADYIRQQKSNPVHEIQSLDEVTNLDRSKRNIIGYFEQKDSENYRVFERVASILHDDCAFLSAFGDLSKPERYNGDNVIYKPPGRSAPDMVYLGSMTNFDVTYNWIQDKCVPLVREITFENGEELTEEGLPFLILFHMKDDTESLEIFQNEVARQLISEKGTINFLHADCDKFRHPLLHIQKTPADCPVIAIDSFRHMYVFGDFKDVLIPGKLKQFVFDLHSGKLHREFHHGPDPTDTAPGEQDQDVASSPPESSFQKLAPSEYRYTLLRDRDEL

Chain of Inositol 1,4,5-trisphosphate-gated calcium channel ITPR1 (Mus musculus), P11881 C2496S (P11881 whole entry C2496S): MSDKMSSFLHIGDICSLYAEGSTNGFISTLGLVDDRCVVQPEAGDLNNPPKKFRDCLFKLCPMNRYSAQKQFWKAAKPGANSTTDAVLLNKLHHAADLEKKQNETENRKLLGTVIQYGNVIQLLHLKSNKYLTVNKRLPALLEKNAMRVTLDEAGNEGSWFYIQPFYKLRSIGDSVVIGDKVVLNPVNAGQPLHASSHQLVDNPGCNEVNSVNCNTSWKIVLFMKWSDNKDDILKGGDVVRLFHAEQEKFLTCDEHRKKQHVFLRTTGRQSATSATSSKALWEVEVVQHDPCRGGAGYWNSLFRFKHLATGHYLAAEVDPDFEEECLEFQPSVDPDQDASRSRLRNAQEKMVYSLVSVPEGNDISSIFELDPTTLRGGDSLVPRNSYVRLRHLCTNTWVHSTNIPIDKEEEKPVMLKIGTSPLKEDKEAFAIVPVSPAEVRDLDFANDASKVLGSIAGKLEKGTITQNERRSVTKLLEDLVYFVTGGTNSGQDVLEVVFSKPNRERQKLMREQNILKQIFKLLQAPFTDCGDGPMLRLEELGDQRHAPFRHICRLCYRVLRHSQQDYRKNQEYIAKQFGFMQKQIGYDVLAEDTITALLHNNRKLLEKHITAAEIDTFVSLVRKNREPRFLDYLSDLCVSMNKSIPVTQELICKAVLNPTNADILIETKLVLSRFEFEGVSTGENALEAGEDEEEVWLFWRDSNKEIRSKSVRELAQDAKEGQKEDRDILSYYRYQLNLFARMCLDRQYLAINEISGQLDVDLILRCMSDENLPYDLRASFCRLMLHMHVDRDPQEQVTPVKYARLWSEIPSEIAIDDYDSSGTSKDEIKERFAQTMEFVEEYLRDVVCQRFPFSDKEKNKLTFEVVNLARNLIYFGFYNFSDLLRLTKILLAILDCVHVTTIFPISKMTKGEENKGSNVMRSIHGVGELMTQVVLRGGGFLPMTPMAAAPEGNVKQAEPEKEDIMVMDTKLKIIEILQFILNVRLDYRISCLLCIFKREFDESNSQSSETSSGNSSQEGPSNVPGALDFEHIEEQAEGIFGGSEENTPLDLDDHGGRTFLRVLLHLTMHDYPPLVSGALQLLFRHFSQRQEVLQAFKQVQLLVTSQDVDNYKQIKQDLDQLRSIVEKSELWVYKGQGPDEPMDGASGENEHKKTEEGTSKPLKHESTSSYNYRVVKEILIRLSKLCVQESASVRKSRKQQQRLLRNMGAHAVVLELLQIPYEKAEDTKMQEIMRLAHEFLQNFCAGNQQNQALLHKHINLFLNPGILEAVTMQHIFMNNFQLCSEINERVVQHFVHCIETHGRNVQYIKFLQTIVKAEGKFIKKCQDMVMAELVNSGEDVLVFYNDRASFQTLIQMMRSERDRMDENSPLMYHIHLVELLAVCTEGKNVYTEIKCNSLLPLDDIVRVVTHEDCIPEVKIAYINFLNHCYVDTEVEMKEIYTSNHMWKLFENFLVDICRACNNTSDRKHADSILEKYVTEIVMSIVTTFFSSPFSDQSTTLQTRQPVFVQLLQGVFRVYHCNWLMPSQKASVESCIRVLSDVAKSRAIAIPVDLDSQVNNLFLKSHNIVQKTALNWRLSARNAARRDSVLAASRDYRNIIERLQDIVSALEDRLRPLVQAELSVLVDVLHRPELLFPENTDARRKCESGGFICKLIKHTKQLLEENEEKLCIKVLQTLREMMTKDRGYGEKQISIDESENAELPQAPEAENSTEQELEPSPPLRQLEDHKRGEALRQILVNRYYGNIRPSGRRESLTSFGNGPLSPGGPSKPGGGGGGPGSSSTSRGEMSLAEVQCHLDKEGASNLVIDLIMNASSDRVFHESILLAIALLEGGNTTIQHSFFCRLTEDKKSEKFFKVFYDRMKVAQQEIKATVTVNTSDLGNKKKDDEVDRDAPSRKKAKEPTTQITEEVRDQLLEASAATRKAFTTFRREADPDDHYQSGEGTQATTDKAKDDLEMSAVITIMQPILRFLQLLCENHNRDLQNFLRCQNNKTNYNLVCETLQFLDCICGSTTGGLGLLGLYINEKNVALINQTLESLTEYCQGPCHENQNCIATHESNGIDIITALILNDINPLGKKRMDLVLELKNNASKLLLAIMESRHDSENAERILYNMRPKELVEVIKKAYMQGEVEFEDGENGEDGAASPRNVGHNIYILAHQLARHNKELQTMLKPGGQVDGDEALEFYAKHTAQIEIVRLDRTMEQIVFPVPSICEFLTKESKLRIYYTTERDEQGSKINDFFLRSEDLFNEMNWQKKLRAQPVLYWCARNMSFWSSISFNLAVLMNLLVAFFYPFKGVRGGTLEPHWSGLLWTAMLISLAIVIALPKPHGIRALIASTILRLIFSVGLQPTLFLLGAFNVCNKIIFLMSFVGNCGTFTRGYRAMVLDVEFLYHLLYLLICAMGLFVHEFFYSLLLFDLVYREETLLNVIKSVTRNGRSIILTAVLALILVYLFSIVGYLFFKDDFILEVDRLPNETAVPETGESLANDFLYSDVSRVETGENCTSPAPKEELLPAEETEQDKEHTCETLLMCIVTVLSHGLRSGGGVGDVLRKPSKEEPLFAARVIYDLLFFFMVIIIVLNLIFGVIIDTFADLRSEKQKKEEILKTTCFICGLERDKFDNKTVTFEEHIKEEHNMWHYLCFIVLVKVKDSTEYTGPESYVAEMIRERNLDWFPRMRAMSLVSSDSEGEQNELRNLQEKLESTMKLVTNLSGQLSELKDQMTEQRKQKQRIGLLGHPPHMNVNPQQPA

## Inositol 1,4,5-trisphosphate-gated calcium channel ITPR1 (Mus musculus), P11881 C2496S
  effect of a mutation on the interaction: decreasing interaction

## Inositol 1,4,5-trisphosphate-gated calcium channel ITPR1 (Mus musculus), P11881 C2504S
  effect of a mutation on the interaction: decreasing interaction
